Substitutions are numbered along the chain they refer to. Names may count otherwise. Blank lines part the entries; values can stand above or below the binder they belong to.
Legend:
[1] = target: T1, human PD-1 expressed on cells (human, UniProt Q15116 25-288); assay: FACS blocking assay on PD-1-expressing 300.19 cells; blocked ligand at constant concentration: PD-L1-huIgG1 Fc fusion protein (legend paragraph 211 names 'PD-L1-Ig and PD-L2-Ig' for FIG. 8A); bound ligand detected with PE anti-human IgG F(ab')2
T1 construct: whole, on cells; Treated as one molecule; also called PD-1 expressing Jurkat cells; human PD-1 transfected Jurkat cells
T1 sequence (Q15116 25-288): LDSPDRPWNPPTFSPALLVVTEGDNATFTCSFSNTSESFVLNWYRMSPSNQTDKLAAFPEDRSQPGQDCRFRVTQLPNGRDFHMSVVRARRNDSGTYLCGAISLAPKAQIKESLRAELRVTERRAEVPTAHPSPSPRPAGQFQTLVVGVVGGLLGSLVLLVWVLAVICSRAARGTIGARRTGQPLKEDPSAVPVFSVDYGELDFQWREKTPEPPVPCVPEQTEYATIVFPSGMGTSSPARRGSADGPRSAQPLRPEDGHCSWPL
Experimental: Incubation was at 4° C. for 30 min. Bound ligand fusion proteins were detected with PE-conjugated F(ab′)2 fragment of goat anti-human IgG which doesn't recognize IgG4 mAbs (Southern Biotech 2043-09), and flow cytometry.

[2] = target: T1, human PD-1 expressed on cells; assay: rank among the 16 humanized clones by FACS binding data on PD-1-expressing cells
[3] = target: T1, human PD-1 expressed on cells; assay: rank among the 16 humanized clones in competition with Alexa 488-labeled murine mAb BAP049 on PD-1-expressing 300.19 cells, first experiment
Experimental: (§1) Incubations with the mAb mixtures having different concentration ratios of test mAb to labeled mAb was at 4° C. for 30 min. Bound labeled murine mAb was then quantified using a FACS machine. The experiment was performed twice.

[4] = target: T1, human PD-1 expressed on cells; assay: rank among the 16 humanized clones in competition with Alexa 488-labeled murine mAb BAP049 on PD-1-expressing 300.19 cells, second experiment
Experimental: as §1

B1: chimeric antibody BAP049-chi (Tyr) (antibody, human IgG4 S228P, kappa, V domains shown)
VH: QVQLQQSGSELVRPGASVKLSCKASGYTFTTYWMHWVRQRPGQGLEWIGNIYPGTGGSNFDEKFKNRTSLTVDTSSTTAYMHLASLTSEDSAVYYCTRWTTGTGAYWGQGTTVTVSS
VL: DIVMTQSPSSLTVTAGEKVTMSCKSSQSLLDSGNQKNFLTWYQQKPGQPPKLLIFWASTRESGVPDRFTGSGSVTDFTLTISSVQAEDLAVYYCQNDYSYPYTFGQGTKVEIKR
notes: Murine variable regions, human IgG4(S228P), human kappa; also called BAP049-chi-Y; Chi mAb (Tyr)
IC50 (read off the curve) [1]: ~0.8 µg/mL

B3: humanized mAb BAP049-hum11 (antibody, human IgG4 S228P, kappa)
heavy: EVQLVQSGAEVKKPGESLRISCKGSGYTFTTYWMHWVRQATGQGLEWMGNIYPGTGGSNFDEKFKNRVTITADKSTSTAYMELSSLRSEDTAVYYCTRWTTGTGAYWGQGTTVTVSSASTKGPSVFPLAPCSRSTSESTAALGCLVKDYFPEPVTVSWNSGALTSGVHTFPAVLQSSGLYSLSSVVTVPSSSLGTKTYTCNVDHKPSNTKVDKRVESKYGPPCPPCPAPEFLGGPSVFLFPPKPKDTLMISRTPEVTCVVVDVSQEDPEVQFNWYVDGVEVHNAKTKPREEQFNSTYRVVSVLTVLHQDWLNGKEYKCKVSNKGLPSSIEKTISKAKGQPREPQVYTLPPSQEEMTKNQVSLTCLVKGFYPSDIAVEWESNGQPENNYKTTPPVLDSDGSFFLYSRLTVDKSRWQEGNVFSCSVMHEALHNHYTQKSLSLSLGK
light: EIVLTQSPATLSLSPGERATLSCKSSQSLLDSGNQKNFLTWYQQKPGQAPRLLIYWASTRESGVPSRFSGSGSGTDFTFTISSLEAEDAATYYCQNDYSYPYTFGQGTKVEIKRTVAAPSVFIFPPSDEQLKSGTASVVCLLNNFYPREAKVQWKVDNALQSGNSQESVTEQDSKDSTYSLSSTLTLSKADYEKHKVYACEVTHQGLSSPVTKSFNRGEC
notes: Human IgG4(S228P), human kappa; tested as concentrated supernatant of transiently transfected CHO cells; also called Clone No. 11
Ranking FACS data [2]: 6
Competition Binding 1st exp. (rank) [3]: 4
Competition Binding 2nd exp. (rank) [4]: > 4

B4: humanized mAb BAP049-hum10 (antibody, human IgG4 S228P, kappa)
heavy: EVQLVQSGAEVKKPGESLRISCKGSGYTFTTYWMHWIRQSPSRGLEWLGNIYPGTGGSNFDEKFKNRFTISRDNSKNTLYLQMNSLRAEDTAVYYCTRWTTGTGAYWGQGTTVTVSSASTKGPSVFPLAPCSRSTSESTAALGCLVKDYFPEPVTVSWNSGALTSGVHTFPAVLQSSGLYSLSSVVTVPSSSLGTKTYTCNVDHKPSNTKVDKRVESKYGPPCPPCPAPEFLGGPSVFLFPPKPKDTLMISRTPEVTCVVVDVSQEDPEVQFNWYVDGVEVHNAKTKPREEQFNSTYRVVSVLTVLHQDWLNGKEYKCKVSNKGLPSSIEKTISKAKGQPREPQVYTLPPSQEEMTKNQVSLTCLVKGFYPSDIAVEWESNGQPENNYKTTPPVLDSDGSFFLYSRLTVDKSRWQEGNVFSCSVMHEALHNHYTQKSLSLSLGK
light: B3 light
notes: Human IgG4(S228P), human kappa; tested as concentrated supernatant of transiently transfected CHO cells; also called Clone No. 10
Ranking FACS data [2]: 7
Competition Binding 1st exp. (rank) [3]: 6
Competition Binding 2nd exp. (rank) [4]: > 4
IC50 (read off the curve) [1]: ~1 µg/mL

B5: humanized mAb BAP049-hum14 (antibody, human IgG4 S228P, kappa)
heavy: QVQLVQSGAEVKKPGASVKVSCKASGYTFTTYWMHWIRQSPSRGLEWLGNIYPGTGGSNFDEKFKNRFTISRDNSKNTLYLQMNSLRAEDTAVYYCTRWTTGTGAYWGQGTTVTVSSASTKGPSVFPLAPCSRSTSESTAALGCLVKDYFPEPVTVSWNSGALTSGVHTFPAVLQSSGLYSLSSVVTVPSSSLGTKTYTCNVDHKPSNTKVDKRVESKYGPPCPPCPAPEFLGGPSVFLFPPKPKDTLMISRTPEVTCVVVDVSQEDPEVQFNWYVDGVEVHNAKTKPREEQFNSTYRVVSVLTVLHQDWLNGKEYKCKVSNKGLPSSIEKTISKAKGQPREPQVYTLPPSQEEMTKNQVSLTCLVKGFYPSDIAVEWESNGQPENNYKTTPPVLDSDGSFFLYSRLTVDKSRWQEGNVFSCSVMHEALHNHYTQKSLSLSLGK
light: B3 light
notes: Human IgG4(S228P), human kappa; tested as concentrated supernatant of transiently transfected CHO cells
Ranking FACS data [2]: 16
Competition Binding 1st exp. (rank) [3]: 7
Competition Binding 2nd exp. (rank) [4]: 15

B6: humanized mAb BAP049-hum05 (antibody, human IgG4 S228P, kappa, V domains shown)
VH: EVQLVQSGAEVKKPGESLRISCKGSGYTFTTYWMHWVRQATGQGLEWMGNIYPGTGGSNFDEKFKNRVTITADKSTSTAYMELSSLRSEDTAVYYCTRWTTGTGAYWGQGTTVTVSS
VL: EIVLTQSPATLSLSPGERATLSCKSSQSLLDSGNQKNFLTWYQQKPGKAPKLLIYWASTRESGVPSRFSGSGSGTDFTFTISSLQPEDIATYYCQNDYSYPYTFGQGTKVEIKR
notes: Human IgG4(S228P), human kappa; tested as concentrated supernatant of transiently transfected CHO cells; also called Clone No. 05
Ranking FACS data [2]: 5
Competition Binding 1st exp. (rank) [3]: 5
Competition Binding 2nd exp. (rank) [4]: > 4
IC50 (read off the curve) [1]: ~1 µg/mL

B8: humanized mAb BAP049-hum04 (antibody, human IgG4 S228P, kappa, V domains shown)
VH: EVQLVQSGAEVKKPGESLRISCKGSGYTFTTYWMHWIRQSPSRGLEWLGNIYPGTGGSNFDEKFKNRFTISRDNSKNTLYLQMNSLRAEDTAVYYCTRWTTGTGAYWGQGTTVTVSS
VL: B6 VL
notes: as for B5
Ranking FACS data [2]: 14
Competition Binding 1st exp. (rank) [3]: 15
Competition Binding 2nd exp. (rank) [4]: 15

B12: humanized mAb BAP049-hum06 (antibody, human IgG4 S228P, kappa)
heavy: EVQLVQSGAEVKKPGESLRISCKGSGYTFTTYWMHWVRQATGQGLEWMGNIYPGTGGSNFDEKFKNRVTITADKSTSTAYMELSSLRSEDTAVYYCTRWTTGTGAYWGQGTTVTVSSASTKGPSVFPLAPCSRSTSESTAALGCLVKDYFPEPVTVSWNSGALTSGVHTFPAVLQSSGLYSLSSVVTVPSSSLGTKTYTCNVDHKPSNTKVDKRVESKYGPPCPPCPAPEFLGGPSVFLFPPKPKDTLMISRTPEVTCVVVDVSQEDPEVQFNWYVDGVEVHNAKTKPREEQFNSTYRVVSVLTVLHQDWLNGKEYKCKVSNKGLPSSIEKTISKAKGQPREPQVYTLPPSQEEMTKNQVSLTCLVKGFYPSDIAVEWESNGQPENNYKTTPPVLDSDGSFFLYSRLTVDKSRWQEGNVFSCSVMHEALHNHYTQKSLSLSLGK
light: DIVMTQTPLSLPVTPGEPASISCKSSQSLLDSGNQKNFLTWYQQKPGQAPRLLIYWASTRESGVPSRFSGSGSGTDFTFTISSLEAEDAATYYCQNDYSYPYTFGQGTKVEIKRTVAAPSVFIFPPSDEQLKSGTASVVCLLNNFYPREAKVQWKVDNALQSGNSQESVTEQDSKDSTYSLSSTLTLSKADYEKHKVYACEVTHQGLSSPVTKSFNRGEC
notes: as for B5
Ranking FACS data [2]: 1
Competition Binding 1st exp. (rank) [3]: 7
Competition Binding 2nd exp. (rank) [4]: 3

Next, values leading:

Ranking FACS data [2]: 6
Competition Binding 1st exp. (rank) [3]: 7
Competition Binding 2nd exp. (rank) [4]: 15
B2: humanized mAb BAP049-hum15 (antibody, human IgG4 S228P, kappa)
heavy: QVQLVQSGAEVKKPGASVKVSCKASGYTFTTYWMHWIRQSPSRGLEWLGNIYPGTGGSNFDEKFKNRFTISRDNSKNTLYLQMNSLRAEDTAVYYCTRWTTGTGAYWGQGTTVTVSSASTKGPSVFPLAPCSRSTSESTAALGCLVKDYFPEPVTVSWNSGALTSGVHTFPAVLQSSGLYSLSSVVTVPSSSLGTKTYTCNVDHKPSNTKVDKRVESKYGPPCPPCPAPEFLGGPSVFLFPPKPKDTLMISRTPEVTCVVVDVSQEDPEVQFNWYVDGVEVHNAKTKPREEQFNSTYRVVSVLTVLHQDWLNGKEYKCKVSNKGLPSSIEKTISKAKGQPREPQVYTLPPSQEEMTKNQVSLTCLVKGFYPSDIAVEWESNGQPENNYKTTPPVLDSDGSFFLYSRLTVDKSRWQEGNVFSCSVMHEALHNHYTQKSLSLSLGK
light: B3 light with A9D, T10F, L11Q, L13V, S14T, G16K, R18K, A19V, L21I, S22T
notes: as for B5

Ranking FACS data [2]: 7
Competition Binding 1st exp. (rank) [3]: 2
Competition Binding 2nd exp. (rank) [4]: 4
B7: humanized mAb BAP049-hum09 (antibody, human IgG4 S228P, kappa)
heavy: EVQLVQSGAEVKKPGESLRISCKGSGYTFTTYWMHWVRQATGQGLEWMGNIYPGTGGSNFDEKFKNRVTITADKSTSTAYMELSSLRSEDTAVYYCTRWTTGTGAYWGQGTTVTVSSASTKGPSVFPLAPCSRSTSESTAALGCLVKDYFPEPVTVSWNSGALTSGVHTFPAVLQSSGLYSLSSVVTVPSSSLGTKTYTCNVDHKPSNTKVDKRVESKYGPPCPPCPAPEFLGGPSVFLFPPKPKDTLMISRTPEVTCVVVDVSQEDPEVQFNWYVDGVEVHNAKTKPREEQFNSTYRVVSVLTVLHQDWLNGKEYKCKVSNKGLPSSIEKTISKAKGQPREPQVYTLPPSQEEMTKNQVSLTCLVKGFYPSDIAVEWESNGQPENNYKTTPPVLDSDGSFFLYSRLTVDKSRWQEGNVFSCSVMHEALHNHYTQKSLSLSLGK
light: B3 light with A9D, T10F, L11Q, L13V, S14T, G16K, R18K, A19V, L21I, S22T
notes: Human IgG4(S228P), human kappa; tested as concentrated supernatant of transiently transfected CHO cells; also called Clone No. 09

Ranking FACS data [2]: 4
Competition Binding 1st exp. (rank) [3]: 7
Competition Binding 2nd exp. (rank) [4]: > 4
B9: humanized mAb BAP049-hum07 (antibody, human IgG4 S228P, kappa)
heavy: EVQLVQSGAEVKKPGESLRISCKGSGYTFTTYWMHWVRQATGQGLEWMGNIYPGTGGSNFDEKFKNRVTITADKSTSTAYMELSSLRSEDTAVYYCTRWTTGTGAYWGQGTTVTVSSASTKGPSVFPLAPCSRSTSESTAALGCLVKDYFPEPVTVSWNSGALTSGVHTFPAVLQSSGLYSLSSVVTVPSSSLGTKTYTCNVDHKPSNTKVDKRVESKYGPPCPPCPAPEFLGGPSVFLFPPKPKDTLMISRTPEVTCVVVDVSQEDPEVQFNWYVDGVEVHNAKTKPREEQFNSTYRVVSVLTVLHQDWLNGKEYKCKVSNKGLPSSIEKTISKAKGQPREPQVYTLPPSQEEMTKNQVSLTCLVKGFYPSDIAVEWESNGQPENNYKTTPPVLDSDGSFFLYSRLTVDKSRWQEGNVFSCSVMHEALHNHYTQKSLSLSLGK
light: B3 light with Q48K, R51K
notes: as for B5

Ranking FACS data [2]: 2
Competition Binding 1st exp. (rank) [3]: 7
Competition Binding 2nd exp. (rank) [4]: 2
IC50 (read off the curve) [1]: ~1 µg/mL
B10: humanized mAb BAP049-hum01 (antibody, human IgG4 S228P, kappa, V domains shown)
VH: B6 VH
VL: B6 VL with K48Q, K51R, D76E, F79L, E87D, I89F
notes: Human IgG4(S228P), human kappa; tested as concentrated supernatant of transiently transfected CHO cells; also called Clone No. 01

Ranking FACS data [2]: 7
Competition Binding 1st exp. (rank) [3]: 7
Competition Binding 2nd exp. (rank) [4]: 4
B11: humanized mAb BAP049-hum08 (antibody, human IgG4 S228P, kappa)
heavy: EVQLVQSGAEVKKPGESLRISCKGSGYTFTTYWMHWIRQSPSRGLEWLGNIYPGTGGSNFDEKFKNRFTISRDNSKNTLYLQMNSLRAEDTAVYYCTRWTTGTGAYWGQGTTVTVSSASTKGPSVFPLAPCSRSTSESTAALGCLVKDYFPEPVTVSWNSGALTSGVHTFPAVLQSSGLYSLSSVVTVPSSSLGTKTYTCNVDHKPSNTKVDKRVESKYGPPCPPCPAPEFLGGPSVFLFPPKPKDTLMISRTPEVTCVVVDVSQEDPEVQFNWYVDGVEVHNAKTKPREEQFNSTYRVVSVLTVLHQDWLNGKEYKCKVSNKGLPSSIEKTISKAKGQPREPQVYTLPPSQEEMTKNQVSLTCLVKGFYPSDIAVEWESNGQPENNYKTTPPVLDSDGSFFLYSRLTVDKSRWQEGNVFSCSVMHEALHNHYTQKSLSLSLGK
light: B3 light with A9D, T10F, L11Q, L13V, S14T, G16K, R18K, A19V, L21I, S22T
notes: Human IgG4(S228P), human kappa; tested as concentrated supernatant of transiently transfected CHO cells; also called Clone No. 08

Ranking FACS data [2]: 15
Competition Binding 1st exp. (rank) [3]: 16
Competition Binding 2nd exp. (rank) [4]: 15
B13: humanized mAb BAP049-hum16 (antibody, human IgG4 S228P, kappa, V domains shown)
VH: B8 VH with I37V, S40A, S42G, R43Q, L48M
VL: EIVLTQSPDFQSVTPKEKVTITCKSSQSLLDSGNQKNFLTWYQQKPGQAPRLLIYWASTRESGVPSRFSGSGSGTDFTFTISSLEAEDAATYYCQNDYSYPYTFGQGTKVEIKR
notes: as for B5

Ranking FACS data [2]: 7
Competition Binding 1st exp. (rank) [3]: 8
Competition Binding 2nd exp. (rank) [4]: 14
B14: humanized mAb BAP049-hum03 (antibody, human IgG4 S228P, kappa, V domains shown)
VH: B8 VH
VL: DIQMTQSPSSLSASVGDRVTITCKSSQSLLDSGNQKNFLTWYQQKPGQAPRLLIYWASTRESGIPPRFSGSGYGTDFTLTINNIESEDAAYYFCQNDYSYPYTFGQGTKVEIKR
notes: as for B5

Ranking FACS data [2]: 6
Competition Binding 1st exp. (rank) [3]: 3
Competition Binding 2nd exp. (rank) [4]: 2
B15: humanized mAb BAP049-hum02 (antibody, human IgG4 S228P, kappa, V domains shown)
VH: B6 VH
VL: B14 VL
notes: as for B5

Ranking FACS data [2]: 3
Competition Binding 1st exp. (rank) [3]: 8
Competition Binding 2nd exp. (rank) [4]: 16
B16: humanized mAb BAP049-hum12 (antibody, human IgG4 S228P, kappa, V domains shown)
VH: B6 VH
VL: DIQMTQSPSSLSASVGDRVTITCKSSQSLLDSGNQKNFLTWYLQKPGQSPQLLIYWASTRESGVPSRFSGSGSGTDFTFTISSLEAEDAATYYCQNDYSYPYTFGQGTKVEIKR
notes: as for B5

Ranking FACS data [2]: 6
Competition Binding 1st exp. (rank) [3]: 1
Competition Binding 2nd exp. (rank) [4]: 1
B17: humanized mAb BAP049-hum13 (antibody, human IgG4 S228P, kappa)
heavy: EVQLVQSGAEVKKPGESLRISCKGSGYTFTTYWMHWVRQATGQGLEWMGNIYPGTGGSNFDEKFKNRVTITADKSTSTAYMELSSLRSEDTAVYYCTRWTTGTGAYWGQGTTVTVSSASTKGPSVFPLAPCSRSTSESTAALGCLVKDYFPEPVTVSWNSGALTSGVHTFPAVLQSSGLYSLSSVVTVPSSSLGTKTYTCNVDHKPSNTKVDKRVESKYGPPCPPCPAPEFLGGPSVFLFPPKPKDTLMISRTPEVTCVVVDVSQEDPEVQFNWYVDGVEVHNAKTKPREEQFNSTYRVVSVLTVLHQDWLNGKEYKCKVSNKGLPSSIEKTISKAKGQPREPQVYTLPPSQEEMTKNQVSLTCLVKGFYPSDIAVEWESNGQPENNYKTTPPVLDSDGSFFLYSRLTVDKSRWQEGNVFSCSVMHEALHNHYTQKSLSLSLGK
light: B12 light with I2V, T7S, P15L, E17Q, Q48K, R51K
notes: as for B5

Source: patent publication US20180155427A1 (Novartis, published 2018)
